From patent US20160159862A1 (PROTAGONIST THERAPEUTICS, published 2016) come the findings set out here.

The labels stand for the following.
B1: SEQ ID NO 170 (peptide)
peptide: Ac-[Pen][NMeR]SDTL[Pen][Phe(4-tBu)][b‑H‑E][dK]
modifications: disulfide 1-7 (inferred); not fully specified (residue 10); also: hexanoic acid attached after k
B2: SEQ ID NO 158 (peptide)
peptide: Ac-XRSDXLXXE-NH2
modifications: disulfide 1-7 (inferred); not fully specified (residues 1, 2, 5, 7, 8, 9); printed as Ac-Pen-(N-Me-R)-S-D-Cha-L-Pen-(2-Nal)-e-NH2, disulfide
B3: SEQ ID NO 169 (peptide)
peptide: Ac-[Pen][NMeR]SDTL[Pen][Phe(4-tBu)][b‑H‑E][dK]
modifications: disulfide 1-7 (inferred); not fully specified (residue 10); also: 4,4,4-trifluorobutyric acid attached after k

Bridge positions count the residues as written; N and C are the ends. Square brackets hold non-standard residues; d marks the D form. Primed or numbered codes have the meaning given here. Ends that are not written are not given here. PEG13′ = Bifunctional PEG linker with 13 polyethylene glycol units; PEG25′ = Bifunctional PEG linker with 25 polyethylene glycol units; Phe(4-CF3) = N[C@@H](Cc1ccc(C(F)(F)F)cc1)C(=O)O; Phe(4-tBu) = CC(C)(C)c1ccc(C[C@H](N)C(=O)O)cc1; Bip = N[C@@H](Cc1ccc(-c2ccccc2)cc1)C(=O)O; Phe(4-CN) = N#Cc1ccc(C[C@H](N)C(=O)O)cc1; 1Nal = N[C@@H](Cc1cccc2ccccc12)C(=O)O; 2Nal = N[C@@H](Cc1ccc2ccccc2c1)C(=O)O; NMeR = CN[C@@H](CCCNC(=N)N)C(=O)O; Tic = O=C(O)[C@@H]1Cc2ccccc2CN1; β3hE = N[C@@H](CCC(=O)O)CC(=O)O; NMeK = CN[C@@H](CCCCN)C(=O)O; Pen = CC(C)(S)[C@H](N)C(=O)O; hLeu = CC(C)CC[C@H](N)C(=O)O

This experiment has as its target α4β7 integrin on human cells (human, UniProt P13612 34-1032; P26010 20-798). Nature of the experiment: cell-based or functional assay.
For the molecule [PEG13′]C[NMeR]SDTL[Pen]W-NH2 (disulfide 2-8 (inferred)) [SEQ ID NO 20], the “α4β7 cell (Hu) IC50” value is more than 0.05 µM.
Regarding Ac-[Pen][NMeR]SDTL[Pen][2Nal][dT][dK]-NH2 (disulfide 1-7 (inferred); also: homodimer via DIG) [SEQ ID NO 140], the “α4β7 cell (Hu) IC50” value is more than 0.01 µM.
With Ac-[Pen][NMeR]SDTL[Pen][2Nal][dF][dK]-NH2 (disulfide 1-7 (inferred); also: homodimer via DIG) [SEQ ID NO 117], the “α4β7 cell (Hu) IC50” value is more than 0.1 µM.
[PEG25′]C[NMeR]SDTL[Pen]W-NH2 (disulfide 2-8 (inferred)) [SEQ ID NO 21]: the “α4β7 cell (Hu) IC50” value is more than 0.05 µM.
On the same count and under the same terms, the value for Ac-[Pen][NMeR]SDTL[Pen][2Nal][dL][dK]-NH2 (disulfide 1-7 (inferred); also: homodimer via DIG) [SEQ ID NO 119] was more than 0.5 µM; that for Ac-[Pen][NMeR]SDTY[Pen][2Nal][dE]-NH2 (disulfide 1-7 (inferred)) [SEQ ID NO 164] was more than 1 µM; that for Ac-[Pen][NMeR]SDTQ[Pen][2Nal][dE]-NH2 (disulfide 1-7 (inferred)) [SEQ ID NO 163] was more than 1 µM.
On the same count and under the same terms, the value for Ac-[Pen][NMeR]SDTL[Pen][2Nal][dH][dK]-NH2 (disulfide 1-7 (inferred); also: homodimer via DIG) [SEQ ID NO 118] was more than 0.025 µM; that for Ac-[Pen][NMeR]SDTL[Pen]HE[dK]-NH2 (disulfide 1-7 (inferred); also: homodimer via DIG) [SEQ ID NO 25] was more than 0.01 µM.
The same measure, in the same setting: for Ac-[Pen][NMeR]SDVL[Pen][2Nal][dE]-NH2 (disulfide 1-7 (inferred)) [SEQ ID NO 156] the value was more than 0.1 µM; for Ac-[Pen][NMeR]SDTL[Pen]W[BetaE][dK]-NH2 (disulfide 1-7 (inferred); also: dimer via DIG) [SEQ ID NO 1], more than 0.05 µM.
As to Ac-[Pen][NMeR]SDTL[Pen][Bip][β3hE][dK]-NH2 (disulfide 1-7 (inferred); also: homodimer via DIG) [SEQ ID NO 135], the “α4β7 cell (Hu) IC50” value was not above 0.01 µM.
On the same count and under the same terms, the value for Ac-[Pen][NMeR]SDTL[Pen][Bip]E[NMeK]-NH2 (disulfide 1-7 (inferred); also: homodimer via DIG) [SEQ ID NO 136] was not above 0.01 µM; that for Ac-[Pen][NMeR]SDLL[Pen][2Nal][dE]-NH2 (disulfide 1-7 (inferred)) [SEQ ID NO 159] was more than 1 µM.
For the molecule Ac-[Pen][NMeR]SDTL[Pen][Phe(4-tBu)][b‑H‑E]-NH2 (disulfide 1-7 (inferred)) [SEQ ID NO 165], the “PBMC IC50” value is more than 0.1 µM and the “α4β7 cell (Hu) IC50” value was more than 0.01 µM.
As to B1, the “α4β7 cell (Hu) IC50” value is more than 0.01 µM.
Ac-[Pen][NMeR]SDTL[Pen][Phe(4-tBu)][b‑H‑E][dK]-NH2 (disulfide 1-7 (inferred); also: homodimer via IDA-PEG4-Biotin) [SEQ ID NO 167]: the “PBMC IC50” value is not above 0.01 µM and the “α4β7 cell (Hu) IC50” value is not above 0.01 µM.
For the molecule Ac-[Pen][NMeR]SDFL[Pen][2Nal][dE]-NH2 (disulfide 1-7 (inferred)) [SEQ ID NO 157], the “α4β7 cell (Hu) IC50” value was more than 1 µM.
As for Ac-[Pen][NMeR]SDTL[Pen][dW]E[dK]-NH2 (disulfide 1-7 (inferred); also: homodimer via DIG) [SEQ ID NO 28], the “α4β7 cell (Hu) IC50” value is more than 0.05 µM.
Same read-out and setting: for Ac-[Pen][NMeR]SDTL[Pen][1Nal][dT][dK]-NH2 (disulfide 1-7 (inferred); also: homodimer via DIG) [SEQ ID NO 116] the value was more than 0.05 µM.
Still for that read-out and setting: for Ac-[Pen][NMeR]SDTL[Pen]WE-OH (disulfide 1-7 (inferred)) [SEQ ID NO 128] the value was more than 0.05 µM; for B2, more than 1 µM.
Same read-out and setting: for XRSDTLXW (Ac-Pen-(N-Me-R)-S-D-T-L-Pen-W-OH; disulfide) [SEQ ID NO 127] the value was more than 0.1 µM; for Ac-[Pen][NMeR]SDTL[Pen]H[dE][dK]-NH2 (disulfide 1-7 (inferred); also: homodimer via DIG) [SEQ ID NO 124], more than 0.1 µM; for Ac-[Pen][NMeR]SDTL[Pen][Phe(4-CF3)][dE][dK]-NH2 (disulfide 1-7 (inferred); also: homodimer via DIG) [SEQ ID NO 122], more than 0.05 µM.
For the molecule Ac-[Pen][NMeR]SDTL[Pen]HY[dK]-NH2 (disulfide 1-7 (inferred); also: homodimer via DIG) [SEQ ID NO 26], the “α4β7 cell (Hu) IC50” value is more than 0.1 µM.
Same read-out and setting: for Ac-[Pen][NMeR]SDTF[Pen][2Nal][dE]-NH2 (disulfide 1-7 (inferred)) [SEQ ID NO 162] the value was more than 1 µM; for Ac-[Pen][NMeR]SDTL[Pen][2Nal][dY][dK]-NH2 (disulfide 1-7 (inferred); also: homodimer via DIG) [SEQ ID NO 27], more than 0.025 µM.
As for Ac-[Pen][NMeR]SDTL[Pen][Phe(4-tBu)][b‑H‑E][dK]-OH (disulfide 1-7 (inferred); also: homodimer via DIG) [SEQ ID NO 168], the “PBMC IC50” value is not above 0.01 µM and the “α4β7 cell (Hu) IC50” value is not above 0.01 µM.
For Ac-[Pen][NMeR]SDTL[Pen][1Nal][Tic][dK]-NH2 (disulfide 1-7 (inferred); also: homodimer via DIG) [SEQ ID NO 115], the “α4β7 cell (Hu) IC50” value was more than 0.1 µM.
Still for that read-out and setting: for Ac-[Pen][NMeR]SDTL[Pen][2Nal][Tic][dK]-NH2 (disulfide 1-7 (inferred); also: homodimer via DIG) [SEQ ID NO 121] the value was more than 0.1 µM; for Ac-[Pen][NMeR]SDTL[Pen][Phe(4-CN)][β3hE][dK]-NH2 (disulfide 1-7 (inferred); also: homodimer via DIG) [SEQ ID NO 139], not above 0.01 µM; for B3, more than 0.01 µM.
Same read-out and setting: for Ac-[Pen][NMeR]SDTL[Pen][2Nal][dR][dK]-NH2 (disulfide 1-7 (inferred); also: homodimer via DIG) [SEQ ID NO 120] the value was more than 1 µM.
As to Ac-[Pen][NMeR]SDTL[Pen][Phe(4-tBu)][b‑H‑E][dK]-NH2 (disulfide 1-7 (inferred); also: homodimer via IDA) [SEQ ID NO 166], the “PBMC IC50” value is not above 0.01 µM and the “α4β7 cell (Hu) IC50” value was not above 0.01 µM.
Ac-[Pen][NMeR]SD[hLeu]L[Pen][2Nal][dE]-NH2 (disulfide 1-7 (inferred)) [SEQ ID NO 161]: the “α4β7 cell (Hu) IC50” value is more than 1 µM.
In the case of Ac-[Pen][NMeR]SDIL[Pen][2Nal][dE]-NH2 (disulfide 1-7 (inferred)) [SEQ ID NO 160], the “α4β7 cell (Hu) IC50” value was more than 1 µM.
The same measure, in the same setting: the value for Ac-[Pen][NMeR]SDTL[Pen]Y[dE][dK]-NH2 (disulfide 1-7 (inferred); also: homodimer via DIG) [SEQ ID NO 123] was more than 0.05 µM.
